Test results as given in patent US8563513 (VAN ANDEL RESEARCH INSTITUTE, dated 2013).
Where no end group is shown, it is not given here.

B1: PTH(15-34)NH2 (peptide)
peptide: LNSMERVEWLRKKLQDVHNF-NH2
notes: also called C-terminally amidated 15-34 fragment of PTH

What was measured:
[1] = target: T1, PTH1R in cell membranes, G protein-coupled conformation (RG) (UniProt Q03431 27-593); test: competition binding, PTH1R in cell membranes, RG state (dominant negative Gαs), n = 3
T1 construct: whole, on cells; Cell membranes, not intact cells; RG state studied by co-expressing the receptor with dominant negative Gαs; also called G protein-coupled receptor
T1 sequence (Q03431 27-593): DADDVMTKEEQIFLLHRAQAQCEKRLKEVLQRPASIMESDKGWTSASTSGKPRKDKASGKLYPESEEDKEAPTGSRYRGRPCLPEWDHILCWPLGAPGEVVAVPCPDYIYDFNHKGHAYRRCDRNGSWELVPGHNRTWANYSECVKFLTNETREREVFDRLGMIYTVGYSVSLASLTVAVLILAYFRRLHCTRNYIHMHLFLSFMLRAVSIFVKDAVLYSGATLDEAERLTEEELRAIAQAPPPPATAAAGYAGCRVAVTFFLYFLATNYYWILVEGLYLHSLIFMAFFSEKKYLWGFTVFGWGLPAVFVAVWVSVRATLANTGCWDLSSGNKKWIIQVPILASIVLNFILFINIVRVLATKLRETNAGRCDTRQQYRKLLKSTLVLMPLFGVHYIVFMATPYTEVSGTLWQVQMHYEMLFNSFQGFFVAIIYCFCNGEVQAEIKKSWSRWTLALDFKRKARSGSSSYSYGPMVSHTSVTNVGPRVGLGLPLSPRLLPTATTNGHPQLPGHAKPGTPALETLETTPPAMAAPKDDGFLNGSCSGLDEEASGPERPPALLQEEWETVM

[2] = target: T2, MBP-PTH1R ECD-(His)6 fusion protein (UniProt Q03431 29-187); test: AlphaScreen single point competition; peptide 20 µM against biotin-PTH(7-34)NH2 (23 nM) on MBP-PTH1R-ECD (23 nM) [panel I]
T2 construct: range 29-187; Expressed in E. coli, disulfide shuffled in vitro; also called MBP-PTH1R ECD-H6; MBP-PTH1R ECD fusion protein
T2 sequence: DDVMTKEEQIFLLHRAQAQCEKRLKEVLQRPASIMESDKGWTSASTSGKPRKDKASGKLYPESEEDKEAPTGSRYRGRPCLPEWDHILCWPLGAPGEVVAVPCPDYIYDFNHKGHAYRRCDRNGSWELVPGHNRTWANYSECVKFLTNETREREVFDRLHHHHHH
Protocol: (§1) ECD-peptide binding assays. The binding of peptides to the MBP-PTH1R ECD-H6 fusion protein was assessed using an AlphaScreen assay (Perkin-Elmer). […] The pre-coupling reactions were mixed, un-labeled competitor peptides were added as indicated, and the reactions were incubated 4 to 5 hrs to reach equilibrium. Photon counts were recorded in 384-well optiplates using an Envision 2104 plate reader (Perkin-Elmer). Prism 5.0 software (GraphPad Software, San Diego) was used to fit the data to a fixed-slope dose-response inhibition equation for determination of IC50 values. Real-time analysis of the binding of peptides to the isolated PTH1R ECD using the Octet Red system (ForteBio) was performed as described in below.

[3] = target: T2, MBP-PTH1R ECD-(His)6 fusion protein; test: AlphaScreen single point competition; peptide 20 µM against biotin-PTH(7-34)NH2 (23 nM) on MBP-PTH1R-ECD (23 nM) [panel H]
Protocol: as §1

Binder	binding result [2]	binding result [3]	also measured
SVSEIQLMHNLGKHLNSMERVEWLRKLIQDVHNF-NH2 [PTH(1-34)NH2 [K27L/L28I]]			IC50 [1]: 0.38 nM; IC50 Log M [1]: -9.5 Log M
GKSIQDLRRRFALHHLIAEIHTA-NH2 (also called PTHrP(12-34)NH2 [F23A]) [F23A]	binds		
GKSIQDLRRRFFLHHLAAEIHTA-NH2 (also called PTHrP(12-34)NH2 [I28A]) [I28A]	binds		
GKSIADLRRRFFLHHLIAEIHTA-NH2 (also called PTHrP(12-34)NH2 [Q16A]) [Q16A]	binds		
GKSIQDLRRRFFLHHLIAEAHTA-NH2 (also called PTHrP(12-34)NH2 [I31A]) [I31A]	binds		
GKSIQDLARRFFLHHLIAEIHTA-NH2 (also called PTHrP(12-34)NH2 [R19A]) [R19A]	binds		
GKSIQDLRARFFLHHLIAEIHTA-NH2 (also called PTHrP(12-34)NH2 [R20A])	no binding (tested: 20 µM)		
GKSIQDLRRAFFLHHLIAEIHTA-NH2 (also called PTHrP(12-34)NH2 [R21A]) [R21A]	binds		
GKSIQDLRRRFFAHHLIAEIHTA-NH2 (also called PTHrP(12-34)NH2 [L24A])	binds		
GKSIQDLRRRFFLHHAIAEIHTA-NH2 (also called PTHrP(12-34)NH2 [L27A]) [L27A]	binds		
GKSIQDLRRRFFLHHLIAEIATA-NH2 (also called PTHrP(12-34)NH2 [H32A])	binds		
B1		binds	
LNSMERVEWLRKKLQDAHNF-NH2 (also called PTH(15-34)NH2 [V31A]) [V31A]		binds	
LNSMERVEWLRKKAQDVHNF-NH2 (also called PTH(15-34)NH2 [L28A]) [L28A]		no binding (tested: 20 µM)	
LNSMERVEWLRKKLQDVHNA-NH2 (also called PTH(15-34)NH2 [F34A]) [F34A]		binds	
LNSMERVEALRKKLQDVHNF-NH2 (also called PTH(15-34)NH2 [W23A]) [W23A]		no binding (tested: 20 µM)	
LNSMERVEWLRKKLQDVANF-NH2 (also called PTH(15-34)NH2 [H32A])		binds	
LNSMEAVEWLRKKLQDVHNF-NH2 (also called PTH(15-34)NH2 [R20A])		binds	
LNSMARVEWLRKKLQDVHNF-NH2 (also called PTH(15-34)NH2 [E19A]) [E19A]		binds	
LNSMERVEWARKKLQDVHNF-NH2 (also called PTH(15-34)NH2 [L24A])		no binding (tested: 20 µM)	
LNSMERAEWLRKKLQDVHNF-NH2 (also called PTH(15-34)NH2 [V21A]) [V21A]		binds	
LNSMERVEWLRKKLADVHNF-NH2 (also called PTH(15-34)NH2 [Q29A]) [Q29A]		binds	
LNSMERVEWLRKALQDVHNF-NH2 (also called PTH(15-34)NH2 [K27A]) [K27A]		binds	
LNSMERVEWLRAKLQDVHNF-NH2 (also called PTH(15-34)NH2 [K26A]) [K26A]		binds	
